What all share (assay): ELISA, bacterial lysate on plate-bound antigen, luminescence
Assay [1] has as its target unrelated Fc-fused recombinant protein (negative control).
Assay [2] addresses T1, recombinant biotinylated human CD137 protein (Fc-fusion protein, R&D Systems 838-4B) (human, UniProt Q07011 24-186, biotinylated (site not stated)).
T1 construct: Bought Fc fusion; The ELISA used the same antigen as the panning; also called CD137-Fc; biotinylated CD137; not shown: Fc part of the bought fusion protein
The method, then: (§1) Streptavidin-coated Maxisorp plates (Nunc catalog 436110) were blocked for 1 h in Starting Block T20 (Pierce) and then coated with biotinylated CD137 (using same antigen as in panning) or negative controls (an unrelated Fc-fused recombinant protein and human serum albumin) for 1 h. Plates were rinsed with TBST and diluted lysate was applied to plates for 1 h. Following additional rinses, wells were treated with HRP-conjugated anti-Centyrin antibody (PAB25) for 1 h and then assayed with POD (Roche catalog 11582950001).

The next assay addresses T2, human serum albumin (human, UniProt P02768 25-609).
T2 construct: Negative control antigen of the screening ELISA; also called HSA
How it is done:
as §1

Substitutions are numbered along the chain they refer to.

T2 sequence (P02768 25-609 limits assumed): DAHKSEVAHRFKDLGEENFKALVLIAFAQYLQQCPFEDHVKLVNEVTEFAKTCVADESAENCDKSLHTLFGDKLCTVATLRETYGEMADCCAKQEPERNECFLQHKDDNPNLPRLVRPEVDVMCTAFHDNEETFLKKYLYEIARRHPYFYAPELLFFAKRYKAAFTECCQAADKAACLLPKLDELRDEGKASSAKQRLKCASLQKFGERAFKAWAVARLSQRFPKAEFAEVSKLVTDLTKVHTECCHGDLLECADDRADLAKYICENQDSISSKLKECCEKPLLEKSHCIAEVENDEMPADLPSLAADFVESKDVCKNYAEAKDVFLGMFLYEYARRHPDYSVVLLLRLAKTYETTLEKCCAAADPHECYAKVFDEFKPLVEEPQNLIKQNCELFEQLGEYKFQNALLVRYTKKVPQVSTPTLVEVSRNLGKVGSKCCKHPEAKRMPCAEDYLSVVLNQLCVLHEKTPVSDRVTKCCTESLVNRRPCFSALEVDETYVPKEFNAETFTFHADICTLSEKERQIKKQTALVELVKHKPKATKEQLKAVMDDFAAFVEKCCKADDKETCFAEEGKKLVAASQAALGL

B1: ISOP120FR5P1E10 (designed binder, not shown: small tags and cut ends)
chain: LPAPKNLVVSRVTEDSARLSWTAPDAAFDSFLIHYTEQPSKGEAIVLTVPGSERSYDLTGLKPGTEYQVPIGVKGGTQSCPLSAIFTT
notes: FN3 domain (Centyrin); tested as E. coli lysate
For B1, in assay [1], the ELISA Fc Control (RLU) worked out at 240 RLU. Moreover, the “ELISA CD137-Fc (RLU)” value in assay [2] was found to be 953000 RLU. For the same molecule, in the assay with human serum albumin, the “ELISA HSA (RLU)” value came to 320 RLU.

B2: ISOP120BR5P1F1 (designed binder, not shown: small tags and cut ends)
chain: LPAPKNLVVSRVTEDSARLSWTFHPTFEGFDSFLIQYQESEKVGEAIVLTVPGSERSYDLTGLKPGTEYTVSIYGVKWTVLRPWLSNPLSAIFTT
notes: as for B1
Take B2: in assay [1], the ELISA Fc Control (RLU) was 480 RLU. In addition, the “ELISA CD137-Fc (RLU)” value in assay [2] is 542000 RLU. Also, the “ELISA HSA (RLU)” value with human serum albumin came out at 480 RLU.

B3: ISOP120ER5P1A7 (designed binder, not shown: small tags and cut ends)
chain: LPAPKNLVVSRVTEDSARLSWTAPDAAFDSFNIGYYERIIPGEAIVLTVPGSERSYDLTGLKPGTEYSVLICGVKGGKGSIPLSAIFTT
notes: as for B1
Take B3: the ELISA Fc Control (RLU) in assay [1] stood at 400 RLU. In addition, in assay [2], the “ELISA CD137-Fc (RLU)” value was 1.11e+06 RLU. In addition, in the assay with human serum albumin, the “ELISA HSA (RLU)” value was determined as 400 RLU.

B4: ISOP120BR5P1C1 (designed binder, not shown: small tags and cut ends)
chain: LPAPKNLVVSRVTEDSARLSWVREDAYAFDSFLIQYQESEKVGEAIVLTVPGSERSYDLTGLKPGTEYTVSIYGVSSLHWVVHDSNPLSAIFTT
notes: as for B1
Regarding B4, in assay [1], the ELISA Fc Control (RLU) was 480 RLU. For the same molecule, the “ELISA CD137-Fc (RLU)” value in assay [2] was 438000 RLU. The “ELISA HSA (RLU)” value with human serum albumin is 480 RLU.

B5: ISOP120AR5P1G8 (designed binder, not shown: small tags and cut ends)
chain: LPAPKNLVVSRVTEDSARLSWHATFGDPFDSFLIQYQESEKVGEAIVLTVPGSERSYDLTGLKPGTEYTVSIYGVGRHYTVYDSNPLSAIFTT
notes: as for B1
As to B5, the ELISA Fc Control (RLU) in assay [1] is 320 RLU. Further, the “ELISA CD137-Fc (RLU)” value in assay [2] was determined as 541000 RLU. The “ELISA HSA (RLU)” value in the assay with human serum albumin amounted to 320 RLU.

B6: ISOP120AR5P1D9 (designed binder, not shown: small tags and cut ends)
chain: B5 chain with H22N, A23T, T24D, F25W, G26V, D27H, P28T
notes: as for B1
With B6, the ELISA Fc Control (RLU) in assay [1] was 320 RLU. Moreover, in assay [2], the “ELISA CD137-Fc (RLU)” value worked out at 636000 RLU. Also, in the assay with human serum albumin, the “ELISA HSA (RLU)” value came to 320 RLU.

B7: ISOP120AR5P1B12 (designed binder, not shown: small tags and cut ends)
chain: LPAPKNLVVSRVTEDSARLSWDGDKWANFKFDSFLIQYQESEKVGEAIVLTVPGSERSYDLTGLKPGTEYTVSIYGVGLHYIVYDSNPLSAIFTT
notes: FN3 domain (Centyrin)
As for B7, the ELISA Fc Control (RLU) in assay [1] was determined as 400 RLU. The “ELISA CD137-Fc (RLU)” value in assay [2] worked out at 864000 RLU. In addition, the “ELISA HSA (RLU)” value in the assay with human serum albumin was found to be 480 RLU.

B8: ISOP120BR5P1F2 (designed binder, not shown: small tags and cut ends)
chain: LPAPKNLVVSRVTEDSARLSWTFHPTFEGFDSFLIQYQESEKVGEAIVLTVPGSERSYDLTGLKPGTEYTVSIYGVKWYAGIGYPVSNPLSAIFTT
notes: as for B1
On to B8, for which, in assay [1], the ELISA Fc Control (RLU) came to 400 RLU. For the same molecule, the “ELISA CD137-Fc (RLU)” value in assay [2] worked out at 299000 RLU. In addition, the “ELISA HSA (RLU)” value with human serum albumin worked out at 240 RLU.

B9: ISOP120BR5P1D2 (designed binder, not shown: small tags and cut ends)
chain: LPAPKNLVVSRVTEDSARLSWIRKHNHVKWFDSFLIQYQESEKVGEAIVLTVPGSERSYDLTGLKPGTEYTVSIYGVGFLIDTDDSNPLSAIFTT
notes: as for B1
On to B9, for which, in assay [1], the ELISA Fc Control (RLU) turned out to be 720 RLU. In assay [2], the “ELISA CD137-Fc (RLU)” value was 361000 RLU. Moreover, the “ELISA HSA (RLU)” value in the assay with human serum albumin stood at 240 RLU.

B10: ISOP120ER5P1E10 (designed binder, not shown: small tags and cut ends)
chain: LPAPKNLVVSRVTEDSARLSWTAPDAAFDSFEIYYMEDFHSGEAIVLTVPGSERSYDLTGLKPGTEYWVTIYGVEGGTGSLPLSAIFTT
notes: as for B1
For B10, the ELISA Fc Control (RLU) in assay [1] stood at 720 RLU. Moreover, in assay [2], the “ELISA CD137-Fc (RLU)” value was 810000 RLU. Moreover, the “ELISA HSA (RLU)” value with human serum albumin was determined as 400 RLU.

B11: ISOP120ER5P1B12 (designed binder, not shown: small tags and cut ends)
chain: LPAPKNLVVSRVTEDSARLSWTAPDAAFDSFAIYYIEWTAYGEAIVLTVPGSERSYDLTGLKPGTEYVVRISGVKCGIVSFPLSAIFTT
notes: as for B1
Regarding B11, in assay [1], the ELISA Fc Control (RLU) stood at 720 RLU. Also, the “ELISA CD137-Fc (RLU)” value in assay [2] came to 1.44e+06 RLU. The “ELISA HSA (RLU)” value with human serum albumin amounted to 800 RLU.

B12: ISOP120FR5P1E9 (designed binder, not shown: small tags and cut ends)
chain: LPAPKNLVVSRVTEDSARLSWTAPDAAFDSFIIYYPEYISNGEAIVLTVPGSERSYDLTGLKPGTEYHVTIGVKGGHSWPLSAIFTT
notes: as for B1
For B12, the ELISA Fc Control (RLU) in assay [1] worked out at 320 RLU. In addition, the “ELISA CD137-Fc (RLU)” value in assay [2] came to 1.18e+06 RLU. The “ELISA HSA (RLU)” value with human serum albumin was determined as 400 RLU.

B13: ISOP120AR5P1C3 (designed binder, not shown: small tags and cut ends)
chain: LPAPKNLVVSRVTEDSARLSWSPVDADFTFDSFLIQYQESEKVGEAIVLTVPGSERSYDLTGLKPGTEYTVSIYGVGRHYTVYDSNPLSAIFTT
notes: as for B1
For the molecule B13, the ELISA Fc Control (RLU) in assay [1] turned out to be 320 RLU. The “ELISA CD137-Fc (RLU)” value in assay [2] was found to be 927000 RLU. In addition, in the assay with human serum albumin, the “ELISA HSA (RLU)” value turned out to be 240 RLU.

B14: ISOP120BR5P1E2 (designed binder, not shown: small tags and cut ends)
chain: LPAPKNLVVSRVTEDSARLSWAQELDHFDSFLIQYQESEKVGEAIVLTVPGSERSYDLTGLKPGTEYTVSIYGVYWTWWVRWNSNPLSAIFTT
notes: as for B1
As for B14, the ELISA Fc Control (RLU) in assay [1] came to 5680 RLU. Moreover, in assay [2], the “ELISA CD137-Fc (RLU)” value was found to be 882000 RLU. Further, the “ELISA HSA (RLU)” value with human serum albumin is 4960 RLU.

B15: ISOP120HR5P1E7 (designed binder, not shown: small tags and cut ends)
chain: LPAPKNLVVSRVTEDSARLSWTAPDAAFDSFQIYYLEQLGYGEAIVLTVPGSERSYDLTGLKPGTEYLVTIYGVKVCEQSYPLSAIFTT
notes: as for B1
On to B15, for which, in assay [1], the ELISA Fc Control (RLU) came to 480 RLU. The “ELISA CD137-Fc (RLU)” value in assay [2] was determined as 363000 RLU. Besides, the “ELISA HSA (RLU)” value with human serum albumin turned out to be 480 RLU.

B16: ISOP120FR5P1A6 (designed binder, not shown: small tags and cut ends)
chain: LPAPKNLVVSRVTEDSARLSWTAPDAAFDSFIIRYLEDISYGEAIVLTVPGSERSYDLTGLKPGTEYHVGIEGVKGGNVSFPLSAIFTT
notes: as for B1
Regarding B16, the ELISA Fc Control (RLU) in assay [1] was 400 RLU. Also, in assay [2], the “ELISA CD137-Fc (RLU)” value is 1.4e+06 RLU. Moreover, the “ELISA HSA (RLU)” value with human serum albumin came to 320 RLU.

B17: ISOP120ER5P1F4 (designed binder, not shown: small tags and cut ends)
chain: B16 chain with I32V, L36I, I39T, S40V, Y41M, G70S, N78P, V79S, F81L
notes: as for B1
With B17, the ELISA Fc Control (RLU) in assay [1] was determined as 320 RLU. The “ELISA CD137-Fc (RLU)” value in assay [2] was 537000 RLU. Also, the “ELISA HSA (RLU)” value with human serum albumin turned out to be 400 RLU.

B18: ISOP120ER5P1E5 (designed binder, not shown: small tags and cut ends)
chain: B16 chain with I32R, R34S, I39V, S40Y, E72H, N78I, V79D
notes: as for B1
As for B18, the ELISA Fc Control (RLU) in assay [1] came to 240 RLU. In addition, in assay [2], the “ELISA CD137-Fc (RLU)” value worked out at 413000 RLU. Moreover, the “ELISA HSA (RLU)” value with human serum albumin was determined as 320 RLU.

B19: ISOP120FR5P1H6 (designed binder, not shown: small tags and cut ends)
chain: B16 chain with I32G, R34P, S40E, Y41V, T59A, E72Y, N78E, V79Q
notes: as for B1
As to B19, the ELISA Fc Control (RLU) in assay [1] stood at 320 RLU. Moreover, the “ELISA CD137-Fc (RLU)” value in assay [2] came to 357000 RLU. Moreover, the “ELISA HSA (RLU)” value with human serum albumin was 320 RLU.

B20: ISOP120ER5P1H4 (designed binder, not shown: small tags and cut ends)
chain: B16 chain with I32N, R34M, I39V, S40Q, Y41C, E72N, N78L, V79R
notes: as for B1
With B20, the ELISA Fc Control (RLU) in assay [1] was 480 RLU. Further, the “ELISA CD137-Fc (RLU)” value in assay [2] turned out to be 1.07e+06 RLU. The “ELISA HSA (RLU)” value in the assay with human serum albumin was 560 RLU.

B21: ISOP120HR5P1B5 (designed binder, not shown: small tags and cut ends)
chain: B16 chain with L36I, D38E, I39G, S40Y, N78Y, V79Y, F81Y
notes: as for B1
For the molecule B21, in assay [1], the ELISA Fc Control (RLU) worked out at 320 RLU. The “ELISA CD137-Fc (RLU)” value in assay [2] is 520000 RLU. In addition, in the assay with human serum albumin, the “ELISA HSA (RLU)” value was determined as 240 RLU.

(Values after US20220259289A1 (Janssen / Centocor, published 2022).)
